Publication PMC3949515, “Multi-PAS domain-mediated protein oligomerization of PpsR from Rhodobacter sphaeroides” (Acta Crystallographica Section D: Biological Crystallography, 2014)
“And” between values parts separate entries of the source, which are not always exact repeats. Identical values can stand only once. Values belong to the molecule of their own block, whether it stands above or below them.

Tests used:
[1] = target: PpsR_(N-Q-PAS1), PpsR variant comprising the N-terminal domain, the Q-linker and the PAS1 domain (Rhodobacter sphaeroides) (UniProt Q9S301); test: SEC-MALS; Superdex 200 10/300 GL, buffer D (10 mM CHES pH 9.0, 150 mM NaCl, 5% glycerol), 400 µl of a 20 µM protein solution loaded, 0.5 ml/min
[2] = target: PpsR_(N-Q-PAS1), PpsR variant comprising the N-terminal domain, the Q-linker and the PAS1 domain (Rhodobacter sphaeroides) (UniProt Q9S301); test: MST; dimer to monomers, KD based on the total monomer concentration; Monolith NT.115, unlabelled protein titrated (1:2 dilution series) into NT-647-labelled protein (10 nM for PpsR_(N-Q-PAS1)), buffer D, three experiments averaged
[3] = target: PpsR_(N-Q-PAS1), PpsR variant comprising the N-terminal domain, the Q-linker and the PAS1 domain (Rhodobacter sphaeroides) (UniProt Q9S301); test: crystal structure; PpsR_(N-Q-PAS1), 10 mg/ml, 1.6 M ammonium sulfate, 100 mM MES pH 6.5, 10 mM L-cysteine, 4% 1,4-dioxane, 293 K; dimer in the asymmetric unit; 2.2 Å
[4] = target: PpsR_(Q-PAS1), PpsR variant comprising the glutamine-rich linker (Q-linker) and the PAS1 domain (Rhodobacter sphaeroides) (UniProt Q9S301); test: crystal structure; PpsR_(Q-PAS1), 8 mg/ml, 100 mM sodium cacodylate pH 6.5, 1.9% PEG 3000, 200 mM MgCl2, 293 K; one chain in the asymmetric unit, dimer by a crystallographic dyad; 1.65 Å
[5] = target: the molecule itself; test: MST; tetramer to dimers, KD based on the total dimer concentration; Monolith NT.115, unlabelled protein titrated (1:2 dilution series) into 12.5 nM NT-647-labelled protein, buffer D, three experiments averaged
[6] = target: the molecule itself; test: crystal structure; PpsR_(ΔHTH), 30 mg/ml, 1 M ammonium sulfate, 100 mM Tris-HCl pH 8.5, 6% xylitol, 12% glycerol, 1% dioxane, 293 K; four chains in the asymmetric unit, octamer by a crystallographic twofold axis; 2.8 Å
[7] = target: the molecule itself; test: SEC-MALS; Superdex 200 10/300 GL, buffer D (10 mM CHES pH 9.0, 150 mM NaCl, 5% glycerol), 400 µl of a 20 µM protein solution loaded, 0.5 ml/min

B1: PpsR_(full), full-length transcription factor PpsR (photopigment suppression) from Rhodobacter sphaeroides (natural protein, UniProt Q9S301 1-464, looked up)
chain: MLAGGSLPSLAPDLVRDLIATAADISLLVSQEGVVREVMANPHHPSFGQLSEWEGRPLEEVLTAESVAKFRLRSEGLEPGRGSVAVELNHIDPRSFEFPIRYILHRLPADRSILMLGRDLRPIAEVQQQLVAAQLAMERDYETQREMETRYRVVLDVSRDPMVLVSMSTGRIVDLNSAAGLLLGGVRQDLLGAAIAQEFEGRRRGEFMETMTNLAATESAAPVEVLARRSQKRLLVVPRVFRAAGERLLLCQIDPADATQPVGDELSENLARLYHEGVDGIVFSDADGTIRGANEAFLNMTDSSSLAAIRGRSIADFLARGSVDLRVLIDSVRRTGQLRLYATRLTTDFAGQIAAEISATWLDDRERPLLVLVVRDTSRADTMRRPVPATGVIDEPARNVMELVGNSTLKDIVAETTDVVEKMCIETALELTRNNRVAAAEMLSLSRQSLYVKLRKFGLLNKDE
notes: PpsR from Rhodobacter sphaeroides, UniProt Q9S301, full-length protein; gene synthesized with codon optimization for E. coli, cloned in pETM-11; In MST one copy was randomly labelled at amine positions with NT-647 red fluorescent dye (about one label per monomer); In solution a dimer-tetramer equilibrium; source: E. coli BL21 (DE3), purified (Ni-NTA, TEV cleavage, HiTrap Heparin, Superdex 200); …
Kd [5]: 900 ± 300 nM

B2: PpsR_(ΔHTH), triple PAS domain construct of PpsR (N-domain, Q-linker, PAS1, PAS2) lacking the C-terminal HTH motif (domain or fragment, Rhodobacter sphaeroides, UniProt Q9S301 1-379, looked up)
chain: MLAGGSLPSLAPDLVRDLIATAADISLLVSQEGVVREVMANPHHPSFGQLSEWEGRPLEEVLTAESVAKFRLRSEGLEPGRGSVAVELNHIDPRSFEFPIRYILHRLPADRSILMLGRDLRPIAEVQQQLVAAQLAMERDYETQREMETRYRVVLDVSRDPMVLVSMSTGRIVDLNSAAGLLLGGVRQDLLGAAIAQEFEGRRRGEFMETMTNLAATESAAPVEVLARRSQKRLLVVPRVFRAAGERLLLCQIDPADATQPVGDELSENLARLYHEGVDGIVFSDADGTIRGANEAFLNMTDSSSLAAIRGRSIADFLARGSVDLRVLIDSVRRTGQLRLYATRLTTDFAGQIAAEISATWLDDRERPLLVLVVRDTSR
notes: PpsR from Rhodobacter sphaeroides, UniProt Q9S301; the model ends at 378 with the C-terminal arginine disordered; The forward primer 1_fw introduces ATG GGA before the first codon of PpsR; In MST one copy was randomly labelled at amines with NT-647; A selenomethionine-substituted form was also crystallized for phasing; source: E. coli BL21 (DE3), purified (Ni-NTA, TEV cleavage, Superdex 200); …
Kd [5]: 900 ± 200 nM
stoichiometry N [6]: 4 and 8
stoichiometry N [7]: 2

The remaining lines, values ahead:

stoichiometry N [1]: 2
Kd [2]: 250 nM
stoichiometry N [3]: 2
Molecule: PpsR_(N-Q-PAS1), PpsR variant comprising the N-terminal domain, the Q-linker and the PAS1 domain (from UniProt Q9S301 1-257) (domain or fragment)

stoichiometry N [4]: 2
Molecule: PpsR_(Q-PAS1), PpsR variant comprising the glutamine-rich linker (Q-linker) and the PAS1 domain (from UniProt Q9S301 123-257) (domain or fragment)
